This passage reports switch fluorescence ratio results from the supplement of paper PMC10126150.

± gives the standard deviation of the averaged measurements.

The series relates to ATP. As to the kind of experiment: switch fluorescence ratio, 500 uM ATP over buffer (Cy3 cluster intensity, sum of 5 cycles each) (fold (ratio)); higher = stronger signal-on switching upon ATP binding; sequences stand for … in TCGTCGGCAGCGTCAGATGTGTATAAGAGACAGTTTTTTTTTTTTTTTTTTTTTTTTT…TC. Particulars: aptamer strand: ATP DNA aptamer (quencher-CACCTGGGGGAGTATTGCGGAGGAAGG + anchor), 100 nM annealed; ATP concentration: 500 uM. The essentials: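 Exposure to 500 uM ATP lasted 15 min at 22 °C before imaging, and a selection-buffer image was taken beforehand, for Cy3-labelled switching-strand clusters on a modified Illumina MiSeq flow-cell annealed to 100 nM quencher-labelled ATP aptamer. Five buffer/ATP cycles were run with NaOH stripping and re-annealing between them. The fluorescence ratio per cluster is summed target-cycle over summed buffer-cycle Cy3 intensity, averaged per switch-domain sequence. Clusters outside 100-1000 RFU were excluded.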

For the sequence GGGGGTGGG, the switch fluorescence ratio is 1.03 ± 0.069. For the sequence ATTGTGGGCG, the switch fluorescence ratio was determined as 0.952 ± 0.017. The value for GGTACGGGCC was 1.011 ± 0.01; that for CGCGTCGCTG was 0.9811 ± 0.0012. The value for GAAAAGTAAG was 1.018 ± 0.008; that for TCTTACGGGG was 1.003 ± 0.01. The value for ACTCGGTGTG was 0.992 ± 0.029; that for ATTCCTAGA was 0.992 ± 0.021; that for CCGAATCGGA was 1.02 ± 0.054.

On to GGGGAGAGAA, for which the switch fluorescence ratio was 0.9855 ± 0.0071. The value for TCAGTCTTTC was 1.017 ± 0.0009. The value for GATGATTATT was 0.9856 ± 0.0018; that for TGAGGCGGGT was 1.05 ± 0.016. The value for GAAATAGGTT was 0.989 ± 0.012; that for GGGGGAGGCA was 0.966 ± 0.032; that for GACTTTTTGG was 0.998 ± 0.027. As for AATAATTGAC, the switch fluorescence ratio is 1.099 ± 0.0086.

On to GCTTTTGGTA, for which the switch fluorescence ratio was found to be 1.002 ± 0.0095. The value for GATGTAACAC was 1.07 ± 0.013; that for GGTTGGACCA was 0.9602 ± 0.0032; that for GCCAGAGTG was 2 ± 0.44. The value for GTTTTTGGTC was 0.974 ± 0.02; that for CGATGGGGGG was 0.982 ± 0.06. Take GTTTTATGG: the switch fluorescence ratio is 0.982 ± 0.019. Turning to GTGGGTCGGT, the switch fluorescence ratio was 0.979 ± 0.036. The value for CGTGAGTTTG was 0.9888 ± 0.0082. The value for GGTTTAGCTC was 0.999 ± 0.038. For CAAATAAGTC, the switch fluorescence ratio worked out at 0.998 ± 0.013.

As to TGGGCGGCTT, the switch fluorescence ratio came to 0.97 ± 0.011.

Turning to TTTAGGTTGG, the switch fluorescence ratio stood at 0.994 ± 0.031. The value for ATGGGGTTTG was 0.974 ± 0.018; that for AGTGGTGGGG was 0.966 ± 0.014; that for AAGATCTGCC was 1.04 ± 0.021.

In the case of ATCGGATATA, the switch fluorescence ratio amounted to 0.989 ± 0.015. The value for TGTCGTTTTT was 1.01 ± 0.039.

On to TATTTGGATC, for which the switch fluorescence ratio stood at 0.991 ± 0.035.

For ATAGAATGCG, the switch fluorescence ratio was determined as 0.9955 ± 0.0012.

Take TGGGGACTTA: the switch fluorescence ratio turned out to be 1.012 ± 0.0089. The value for TTTTATTTGG was 0.983 ± 0.018; that for GTGATTGCTG was 0.9883 ± 0.0052; that for AGGAGGGGG was 0.989 ± 0.049. The value for GGGGTGTGTG was 0.986 ± 0.021; that for AAGTACGAGG was 1.27 ± 0.17.

As to GAGAGTTGGT, the switch fluorescence ratio is 1.007 ± 0.0073.

Take CGGAATTTGG: the switch fluorescence ratio was found to be 1.02 ± 0.041.

Turning to TCCGTTATTT, the switch fluorescence ratio stood at 1.021 ± 0.0092. Take ATGGGGAAGT: the switch fluorescence ratio was determined as 1.02 ± 0.02. The value for GGGTACTAGT was 1.05 ± 0.023.

For TCTTATTGCT, the switch fluorescence ratio came to 0.96 ± 0.045. The value for ATAGAGGATA was 0.9861 ± 0.0073. The value for GGCAGTGTAC was 1.18 ± 0.12.

Regarding CTTATTAGCG, the switch fluorescence ratio was found to be 1.03 ± 0.019. The value for GAGGGCGTTT was 0.98 ± 0.027; that for TAATCCATCG was 1.03 ± 0.049. The value for CGAAATGGCA was 1.03 ± 0.045; that for AGTAAGGGCT was 0.99 ± 0.015; that for CGTCTGGGAT was 1.01 ± 0.037. The value for CGTTTGTCCT was 0.9907 ± 0.0036; that for AATTGGCTTA was 0.997 ± 0.027; that for AGGAGGGGTC was 1.01 ± 0.048. For ATTACTCACC, the switch fluorescence ratio was determined as 1.44 ± 0.03. The value for TTTTTACTCC was 1.48 ± 0.53.

With TCTTATTGGT, the switch fluorescence ratio amounted to 1.01 ± 0.013.

Regarding CCATAGTGAC, the switch fluorescence ratio was 2.18 ± 0.18. The value for TCTTGTGAGT was 0.984 ± 0.012; that for ATCGTTAGAA was 1.006 ± 0.0025. The value for GGAAATGGTG was 1.1 ± 0.11.

In the case of GTCGGTATTC, the switch fluorescence ratio was found to be 0.9947 ± 0.0081. The value for TGGGGCTATT was 1.02 ± 0.045; that for ATATTACTGC was 1.07 ± 0.02; that for GAGTAGGGTA was 1.01 ± 0.016. The value for GTGGGATGAC was 1.01 ± 0.024; that for GACACGGAAA was 1.23 ± 0.29. The value for TGAGTTCTTG was 0.982 ± 0.046; that for GTTGAATTGG was 0.985 ± 0.026. Regarding CAGGCTAAGA, the switch fluorescence ratio came to 1.026 ± 0.0047. In the case of CTGCGTCGGA, the switch fluorescence ratio was 1.01 ± 0.032.

For the sequence ATTGGGTTGT, the switch fluorescence ratio was 0.973 ± 0.015. The value for AAGGGAGCAA was 1.09 ± 0.037; that for TTGAAAAAAC was 1.04 ± 0.074; that for GGTGTGGCCG was 1.02 ± 0.062. The value for TTCGCGCGGT was 1.04 ± 0.077; that for TTAGTCTGAT was 1 ± 0.038; that for GACATAGGTT was 1.034 ± 0.008.

Turning to CATAGGGGAC, the switch fluorescence ratio was 0.978 ± 0.066.

In the case of CGGGGAAAGA, the switch fluorescence ratio is 0.978 ± 0.03.

On to CAATATTTTT, for which the switch fluorescence ratio is 1 ± 0.015. The value for GCGTGATTGC was 1.06 ± 0.031. Turning to TATATATTAA, the switch fluorescence ratio came out at 1.001 ± 0.0023. The value for TAGAAGCCGG was 0.98897 ± 0.00029; that for GGTGCTGGAG was 0.98 ± 0.011; that for AAAGGAAGGG was 0.989 ± 0.033. For the sequence ACATTTGGGT, the switch fluorescence ratio is 1.0104 ± 0.00044.

Take GGGGTTAAGG: the switch fluorescence ratio amounted to 0.978 ± 0.029.

With GTGTGAGTTG, the switch fluorescence ratio was found to be 0.961 ± 0.022. The value for CAATGGGGGA was 1.007 ± 0.0018; that for TCGAGAGAAA was 1.01 ± 0.016; that for CCAAAAAAGG was 0.9625 ± 0.005. The value for TTTGTCCAGT was 0.991 ± 0.041; that for AGGGTATCGC was 0.9932 ± 0.0065.

In the case of AAGGCTGTCT, the switch fluorescence ratio was determined as 1.02 ± 0.049. In the case of ATGATAAGGG, the switch fluorescence ratio turned out to be 0.979 ± 0.013.

Consider ACGGCTGAGC, for which the switch fluorescence ratio worked out at 1.04 ± 0.03. With GATAATATAA, the switch fluorescence ratio is 1.02 ± 0.026. The value for CCGGGTTTTT was 1.12 ± 0.13; that for ATAAGGAGTG was 0.996 ± 0.021. The value for TTATCGTTTG was 1.02 ± 0.043; that for TGGGGTGAGG was 1 ± 0.035; that for GGCTCCAGCT was 0.978 ± 0.028. With CGGAGAGGCA, the switch fluorescence ratio is 0.974 ± 0.032. The value for ATGATTTAGG was 0.9998 ± 0.0095; that for TAAGCGGGTC was 1 ± 0.018; that for TGGGATCGTC was 0.966 ± 0.042. The value for CGCTGCGGTT was 1.01 ± 0.05; that for TGAAGGGACG was 1.02 ± 0.015. On to GTTATGTGGT, for which the switch fluorescence ratio worked out at 0.975 ± 0.0099. The value for TAAAAAGATT was 0.988 ± 0.019; that for TTTCGCGGGT was 1.05 ± 0.067; that for CTAGTTAGGG was 0.964 ± 0.02. The value for GCTATATTTT was 0.982 ± 0.017.
